Reference: patent US20230287096A1 (published 2023)

T1: F2-08-BSA (#8) (human, conjugated to BSA)
T1 construct: also called mutant F2 peptide fragment #8
T1 peptide: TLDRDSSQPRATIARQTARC

T2: F2-07-BSA (#7) (human, conjugated to BSA)
T2 construct: also called mutant F2 peptide fragment #7
T2 peptide: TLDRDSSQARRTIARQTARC

T3: F2-10-BSA (#10) (human, conjugated to BSA)
T3 construct: also called mutant F2 peptide fragment #10
T3 peptide: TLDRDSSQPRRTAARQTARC

T4: F2-11-BSA (#11) (human, conjugated to BSA)
T4 construct: also called mutant F2 peptide fragment #11
T4 peptide: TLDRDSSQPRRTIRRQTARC

T5: F2-01-BSA (#1) (human, conjugated to BSA)
T5 construct: also called mutant F2 peptide fragment #1
T5 peptide: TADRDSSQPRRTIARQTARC

T6: F2-02-BSA (#2) (human, conjugated to BSA)
T6 construct: also called mutant F2 peptide fragment #2
T6 peptide: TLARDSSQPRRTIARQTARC

T7: F2-13-BSA (#13) (human, conjugated to BSA)
T7 construct: also called mutant F2 peptide fragment #13
T7 peptide: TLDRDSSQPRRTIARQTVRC

T8: F2-05-BSA (#5) (human, conjugated to BSA)
T8 construct: also called mutant F2 peptide fragment #5
T8 peptide: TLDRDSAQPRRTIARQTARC

T9: F2-12-BSA (#12) (human, conjugated to BSA)
T9 construct: also called mutant F2 peptide fragment #12
T9 peptide: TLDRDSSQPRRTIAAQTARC

T10: F2-09-BSA (#9) (human, conjugated to BSA)
T10 construct: also called mutant F2 peptide fragment #9
T10 peptide: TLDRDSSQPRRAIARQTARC

T11: F2-06-BSA (#6) (human, conjugated to BSA)
T11 construct: also called mutant F2 peptide fragment #6
T11 peptide: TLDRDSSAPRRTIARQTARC

T12: F2-04-BSA (#4) (human, conjugated to BSA)
T12 construct: also called mutant F2 peptide fragment #4
T12 peptide: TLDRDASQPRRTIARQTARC

T13: F2-03-BSA (#3) (human, conjugated to BSA)
T13 construct: also called mutant F2 peptide fragment #3
T13 peptide: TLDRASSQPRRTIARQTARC

T14: FAM19A5 epitope fragment F2, conjugated to BSA (human, conjugated to BSA)
T14 peptide: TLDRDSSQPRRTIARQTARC

B1: Anti-FAM19A5 antibody 1-28 (antibody, V domains shown)
VH: AVTLDESGGGLQTPGGALSLVCKASGFDFSDYGMGWVRQAPGKGLEWVAAIRSDGSNPSYGSAVKGRATISKDNGRSTVRLQLNNLRAEDTATYYCAKDGNGYCALDAYRSGGYSCGVYPGSIDAWGHGTEVIVSS
VL: ALTQPSSVSANLEGTVEITCSGSGYGYGWYQQKSPGSAPVTVIYQNDKRPSDIPSRFSGSKSGSTGTLTITGVQVEDEAVYYCGSEDSSTLAGIFGAGTTLTVL
notes: also called Anti-FAM19A5 ("1-28")
B2: Anti-FAM19A5 antibody 2-13 (antibody, V domains shown)
VH: AVTLDESGGGLQTPGGALSLVCKASGFTFSSHGMFWVRQTPGKGLEYVAEITNDGSGTNYGSAVKGRATISRDNGQSTVRLQLNNLRAEDTGTYFCARSTYECPGGFSCWGDTGQIDAWGHGTEVIVSS
VL: ALTQPSSVSANPGETVKITCSGGSYSYGWFQQKSPGSALVTVIYWDDERPSDIPSRFSGALSGSTNTLTITGVQADDEAVYFCGTEDISGTAGVFGAGTTLTVL
notes: Chicken-derived scFv clone converted to a full antibody; also called Anti-FAM19A5 ("2-13")
B3: Anti-FAM19A5 antibody 1-65 (antibody, V domains shown)
VH: AVTLDESGGGLQTPGGALSLVCKASGFTFSSYQMGWVRQAPGKGLEWVGVINKSGSDTSYGSAVKGRATISRDNGQSTVRLQLNNLRAEDTGTYFCAKGSASYITAATIDAWGHGTEVIVSS
VL: ALTQPSSVSANPGETVKITCSGGGSSGYGYGWYQQKSPSSAPLTVIYWNDKRPSDIPSRFSGSKSGSTHTLTITGVQAEDEAVYFCGNDDYSSDSGYVGVFGAGTTLTVL
notes: VL = 39 to 42)
B4: Anti-FAM19A5 antibody 3-2 (antibody, V domains shown)
VH: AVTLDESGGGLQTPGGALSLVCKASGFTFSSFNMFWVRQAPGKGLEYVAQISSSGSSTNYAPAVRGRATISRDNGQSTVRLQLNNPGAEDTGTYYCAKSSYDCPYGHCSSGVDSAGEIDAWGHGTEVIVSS
VL: ALTQPSSVSANPGETVKITCSGGGSYAGSYYYGWYQQKAPGSAPVTLIYESNKRPSDIPSRFSGSTSGSTATLTITGVQADDEAIYYCGSWDSSNGGIFGAGTTLTVL
notes: The text reports the results for '3-2' without separating them, so one molecule is written; Only the variable domains are tied to the name; also called h3-2; m3-2

Columns and labels:
[1] = biological target: Recombinant human FAM19A5 protein (human, UniProt Q7Z5A7 44-132); experiment: ELISA
[2] = biological target: T1, F2-08-BSA (#8); experiment: ELISA, BSA-conjugated mutant F2 peptide coated on plate
[3] = biological target: T2, F2-07-BSA (#7); experiment: as above
[4] = biological target: T3, F2-10-BSA (#10); experiment: as above
[5] = biological target: T4, F2-11-BSA (#11); experiment: as above
[6] = biological target: T5, F2-01-BSA (#1); experiment: as above
[7] = biological target: T6, F2-02-BSA (#2); experiment: as above
[8] = biological target: T7, F2-13-BSA (#13); experiment: as above
[9] = biological target: T8, F2-05-BSA (#5); experiment: as above
[10] = biological target: T9, F2-12-BSA (#12); experiment: as above
[11] = biological target: T10, F2-09-BSA (#9); experiment: as above
[12] = biological target: T11, F2-06-BSA (#6); experiment: as above
[13] = biological target: T12, F2-04-BSA (#4); experiment: as above
[14] = biological target: T13, F2-03-BSA (#3); experiment: as above
[15] = biological target: T14, FAM19A5 epitope fragment F2, conjugated …; experiment: ELISA, BSA-conjugated peptide coated on plate
Procedure: Overlapping peptide fragments (F1-F6, See FIG. 1) of the human FAM19A5 protein were synthesized and conjugated to BSA. Binding of the different anti-FAM19A5 antibodies to the BSA-conjugated peptide fragments F1-F6 was determined by ELISA assay. Briefly, FAM19A5 fragment F1-F6 (diluted to 1 μg/mL in 50 mM carbonate buffer (Biosesang) or to 20 μg/mL for high concentration analysis) were used to coat the wells of 96-well immuno plates (Thermo Scientific) (100 μL/well) overnight at 4° C. and then subsequently washed twice in 1×PBS. The plates were then blocked with the blocking buffer (100 μL/well) for 1 hour at room temperature. During the 1-hour incubation, the relevant anti-FAM19A5 antibodies were diluted to 1 μg/mL (or 20 μg/mL for high concentration analysis) in the diluent buffer. Once the plates were washed (2×using 1×PBS), the diluted anti-FAM19A5 antibodies were added to the appropriate wells, and the plates were incubated at room temperature for 1 hour. The plates were subsequently washed for a total of five times using the washing buffer. […] The absorption value of each of the wells was detected at 492 nm using a 96-well microplate reader (Molecular Device).

Sequence of Recombinant human FAM19A5 protein (Q7Z5A7 other isoform, or with tags, fused parts or gaps): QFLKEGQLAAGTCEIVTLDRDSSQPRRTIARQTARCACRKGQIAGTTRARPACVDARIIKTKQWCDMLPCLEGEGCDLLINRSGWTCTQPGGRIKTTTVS

Binder | Kd [1] | binding result [2] | binding result [3] | binding result [4] | binding result [5] | binding result [6] | binding result [7] | binding result [8] | binding result [9] | binding result [10] | binding result [11] | binding result [12] | binding result [13] | binding result [14] | binding result [15]
B1 | 170 pM | binds | binds | binds | binds | binds | binds | binds | binds | binds | binds | binds | binds |  | 
B2 | ~2770 pM |  |  |  |  |  |  |  |  |  |  |  |  |  | 
B3 | 100 pM |  |  |  |  |  |  |  |  |  |  |  |  |  | 
B4 | 120 pM | binds | binds | binds | binds | binds | binds | binds | binds | binds | binds | binds | binds | binds | binds
